Data published in US20100297122A1.
Blank lines part the entries; values can stand above or below the substance they belong to.

Molecular target: zTNF4 (UniProt Q9Y275)
Assay: cell-based or functional assay

Sequence of Atacicept (chain): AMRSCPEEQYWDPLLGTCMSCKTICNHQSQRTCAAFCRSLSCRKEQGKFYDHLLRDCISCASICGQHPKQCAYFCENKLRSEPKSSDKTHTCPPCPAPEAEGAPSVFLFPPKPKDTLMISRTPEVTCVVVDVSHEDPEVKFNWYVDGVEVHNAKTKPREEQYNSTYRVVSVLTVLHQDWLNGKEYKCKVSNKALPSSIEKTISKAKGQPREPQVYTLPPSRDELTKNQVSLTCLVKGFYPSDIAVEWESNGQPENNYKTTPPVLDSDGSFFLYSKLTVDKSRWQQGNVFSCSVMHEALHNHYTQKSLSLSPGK

Biological activity (U/mL); Atacicept 25/1; 1 Mo +5° C.: 137000 U/mL
Biological activity (U/mL); Atacicept 25/1; 1 Mo+25° C.: 134000 U/mL
Biological activity (U/mL); Atacicept 25/1; 2 Mo +5° C.: 135000 U/mL
Biological activity (U/mL); Atacicept 25/1; 2 Mo+25° C.: 125000 U/mL
Biological activity (U/mL); Atacicept 25/1; 3 Mo +5° C.: 136000 U/mL
Biological activity (U/mL); Atacicept 25/1; 3 Mo+25° C.: 132000 U/mL
Biological activity (U/mL); Atacicept 25/1; 6 Mo +5° C.: 127000 U/mL
Biological activity (U/mL); Atacicept 25/1; 6 Mo+25° C.: 118000 U/mL
Biological activity (U/mL); Atacicept 25/1; 9 Mo +5° C.: 147000 U/mL
Biological activity (U/mL); Atacicept 25/1; 12 Mo +5° C.: 131000 U/mL
Biological activity (U/mL); Atacicept 25/1; 18 Mo +5° C.: 108000 U/mL
Biological activity (U/mL); Atacicept 25/1; Zero Time (5° C. block): 140000 U/mL
Biological activity (U/mL); Atacicept 25/1; Zero Time (25° C. block): 140000 U/mL
Biological activity (U/mL); Atacicept 25/1.2; 1 Mo +5° C.: 116000 U/mL
Biological activity (U/mL); Atacicept 25/1.2; 1 Mo+25° C.: 114000 U/mL
Biological activity (U/mL); Atacicept 25/1.2; 2 Mo +5° C.: 126000 U/mL
Biological activity (U/mL); Atacicept 25/1.2; 2 Mo+25° C.: 118000 U/mL
Biological activity (U/mL); Atacicept 25/1.2; 3 Mo +5° C.: 122000 U/mL
Biological activity (U/mL); Atacicept 25/1.2; 3 Mo+25° C.: 114000 U/mL
Biological activity (U/mL); Atacicept 25/1.2; 6 Mo +5° C.: 115000 U/mL
Biological activity (U/mL); Atacicept 25/1.2; 6 Mo+25° C.: 103000 U/mL
Biological activity (U/mL); Atacicept 25/1.2; 9 Mo +5° C.: 124000 U/mL
Biological activity (U/mL); Atacicept 25/1.2; 12 Mo +5° C.: 106000 U/mL
Biological activity (U/mL); Atacicept 25/1.2; 18 Mo +5° C.: 113000 U/mL
Biological activity (U/mL); Atacicept 25/1.2; Zero Time (5° C. block): 112000 U/mL
Biological activity (U/mL); Atacicept 25/1.2; Zero Time (25° C. block): 112000 U/mL
Biological activity (U/mL); Atacicept 75/1; 1 Mo +5° C.: 410000 U/mL
Biological activity (U/mL); Atacicept 75/1; 1 Mo+25° C.: 388000 U/mL
Biological activity (U/mL); Atacicept 75/1; 2 Mo +5° C.: 380000 U/mL
Biological activity (U/mL); Atacicept 75/1; 2 Mo+25° C.: 337000 U/mL
Biological activity (U/mL); Atacicept 75/1; 3 Mo +5° C.: 374000 U/mL
Biological activity (U/mL); Atacicept 75/1; 3 Mo+25° C.: 365000 U/mL
Biological activity (U/mL); Atacicept 75/1; 6 Mo +5° C.: 364000 U/mL
Biological activity (U/mL); Atacicept 75/1; 6 Mo+25° C.: 328000 U/mL
Biological activity (U/mL); Atacicept 75/1; 9 Mo +5° C.: 468000 U/mL
Biological activity (U/mL); Atacicept 75/1; 12 Mo +5° C.: 346000 U/mL
Biological activity (U/mL); Atacicept 75/1; Zero Time (5° C. block): 423000 U/mL
Biological activity (U/mL); Atacicept 75/1; Zero Time (25° C. block): 423000 U/mL
Biological activity (U/mL); Atacicept 150/1; 1 Mo +5° C.: 775000 U/mL
Biological activity (U/mL); Atacicept 150/1; 1 Mo+25° C.: 777000 U/mL
Biological activity (U/mL); Atacicept 150/1; 2 Mo +5° C.: 755000 U/mL
Biological activity (U/mL); Atacicept 150/1; 2 Mo+25° C.: 720000 U/mL
Biological activity (U/mL); Atacicept 150/1; 3 Mo +5° C.: 819000 U/mL
Biological activity (U/mL); Atacicept 150/1; 3 Mo+25° C.: 761000 U/mL
Biological activity (U/mL); Atacicept 150/1; 6 Mo +5° C.: 815000 U/mL
Biological activity (U/mL); Atacicept 150/1; 6 Mo+25° C.: 677000 U/mL
Biological activity (U/mL); Atacicept 150/1; 9 Mo +5° C.: 843000 U/mL
Biological activity (U/mL); Atacicept 150/1; 12 Mo +5° C.: 810000 U/mL
Biological activity (U/mL); Atacicept 150/1; 18 Mo +5° C.: 565000 U/mL
Biological activity (U/mL); Atacicept 150/1; Zero Time (5° C. block): 836000 U/mL
Biological activity (U/mL); Atacicept 150/1; Zero Time (25° C. block): 836000 U/mL
Biological activity (U/mL); Atacicept 150/1.2; 1 Mo +5° C.: 643000 U/mL
Biological activity (U/mL); Atacicept 150/1.2; 1 Mo+25° C.: 695000 U/mL
Biological activity (U/mL); Atacicept 150/1.2; 2 Mo +5° C.: 743000 U/mL
Biological activity (U/mL); Atacicept 150/1.2; 2 Mo+25° C.: 697000 U/mL
Biological activity (U/mL); Atacicept 150/1.2; 3 Mo +5° C.: 695000 U/mL
Biological activity (U/mL); Atacicept 150/1.2; 3 Mo+25° C.: 607000 U/mL
Biological activity (U/mL); Atacicept 150/1.2; 6 Mo +5° C.: 645000 U/mL
Biological activity (U/mL); Atacicept 150/1.2; 6 Mo+25° C.: 587000 U/mL
Biological activity (U/mL); Atacicept 150/1.2; 9 Mo +5° C.: 714000 U/mL
Biological activity (U/mL); Atacicept 150/1.2; 12 Mo +5° C.: 620000 U/mL
Biological activity (U/mL); Atacicept 150/1.2; 18 Mo +5° C.: 551000 U/mL
Biological activity (U/mL); Atacicept 150/1.2; Zero Time (5° C. block): 647000 U/mL
Biological activity (U/mL); Atacicept 150/1.2; Zero Time (25° C. block): 647000 U/mL
Substance: Atacicept (Fc fusion)

Bioassay (U/mL); 21A, 70 mg/mL; 2-8° C.; 4 w: 366000 U/mL
Bioassay (U/mL); 21A, 70 mg/mL; 2-8° C.; 8 w: 319000 U/mL
Bioassay (U/mL); 21A, 70 mg/mL; 2-8° C.; 13 w: 388000 U/mL
Bioassay (U/mL); 21A, 70 mg/mL; 2-8° C.; time 0: 348000 U/mL
Bioassay (U/mL); 21A, 70 mg/mL; 25° C.; 4 w: 312000 U/mL
Bioassay (U/mL); 21A, 70 mg/mL; 25° C.; 8 w: 279000 U/mL
Bioassay (U/mL); 21A, 70 mg/mL; 25° C.; 13 w: 305000 U/mL
Bioassay (U/mL); 21A, 70 mg/mL; 25° C.; time 0: 348000 U/mL
Bioassay (U/mL); 21B, 70 mg/mL; 2-8° C.; 4 w: 318000 U/mL
Bioassay (U/mL); 21B, 70 mg/mL; 2-8° C.; 8 w: 290000 U/mL
Bioassay (U/mL); 21B, 70 mg/mL; 2-8° C.; 13 w: 358000 U/mL
Bioassay (U/mL); 21B, 70 mg/mL; 2-8° C.; time 0: 336000 U/mL
Bioassay (U/mL); 21B, 70 mg/mL; 25° C.; 4 w: 302000 U/mL
Bioassay (U/mL); 21B, 70 mg/mL; 25° C.; 8 w: 268000 U/mL
Bioassay (U/mL); 21B, 70 mg/mL; 25° C.; 13 w: 343000 U/mL
Bioassay (U/mL); 21B, 70 mg/mL; 25° C.; time 0: 336000 U/mL
Bioassay (U/mL); 21C, 70 mg/mL; 2-8° C.; 4 w: 334000 U/mL
Bioassay (U/mL); 21C, 70 mg/mL; 2-8° C.; 8 w: 307000 U/mL
Bioassay (U/mL); 21C, 70 mg/mL; 2-8° C.; 13 w: 335000 U/mL
Bioassay (U/mL); 21C, 70 mg/mL; 2-8° C.; time 0: 323000 U/mL
Bioassay (U/mL); 21C, 70 mg/mL; 25° C.; 4 w: 316000 U/mL
Bioassay (U/mL); 21C, 70 mg/mL; 25° C.; 8 w: 269000 U/mL
Bioassay (U/mL); 21C, 70 mg/mL; 25° C.; 13 w: 318000 U/mL
Bioassay (U/mL); 21C, 70 mg/mL; 25° C.; time 0: 323000 U/mL
Bioassay (U/mL); 21D, 100 mg/mL; 2-8° C.; 4 w: 452000 U/mL
Bioassay (U/mL); 21D, 100 mg/mL; 2-8° C.; 8 w: 432000 U/mL
Bioassay (U/mL); 21D, 100 mg/mL; 2-8° C.; 13 w: 490000 U/mL
Bioassay (U/mL); 21D, 100 mg/mL; 2-8° C.; time 0: 461000 U/mL
Bioassay (U/mL); 21D, 100 mg/mL; 25° C.; 4 w: 509000 U/mL
Bioassay (U/mL); 21D, 100 mg/mL; 25° C.; 8 w: 431000 U/mL
Bioassay (U/mL); 21D, 100 mg/mL; 25° C.; 13 w: 419000 U/mL
Bioassay (U/mL); 21D, 100 mg/mL; 25° C.; time 0: 461000 U/mL
Bioassay (U/mL); 21E, 100 mg/mL; 2-8° C.; 4 w: 439000 U/mL
Bioassay (U/mL); 21E, 100 mg/mL; 2-8° C.; 8 w: 436000 U/mL
Bioassay (U/mL); 21E, 100 mg/mL; 2-8° C.; 13 w: 470000 U/mL
Bioassay (U/mL); 21E, 100 mg/mL; 2-8° C.; time 0: 459000 U/mL
Bioassay (U/mL); 21E, 100 mg/mL; 25° C.; 4 w: 442000 U/mL
Bioassay (U/mL); 21E, 100 mg/mL; 25° C.; 8 w: 396000 U/mL
Bioassay (U/mL); 21E, 100 mg/mL; 25° C.; 13 w: 405000 U/mL
Bioassay (U/mL); 21E, 100 mg/mL; 25° C.; time 0: 459000 U/mL
Bioassay (U/mL); 21F, 100 mg/mL; 2-8° C.; 4 w: 470000 U/mL
Bioassay (U/mL); 21F, 100 mg/mL; 2-8° C.; 8 w: 407000 U/mL
Bioassay (U/mL); 21F, 100 mg/mL; 2-8° C.; 13 w: 424000 U/mL
Bioassay (U/mL); 21F, 100 mg/mL; 2-8° C.; time 0: 456000 U/mL
Bioassay (U/mL); 21F, 100 mg/mL; 25° C.; 4 w: 449000 U/mL
Bioassay (U/mL); 21F, 100 mg/mL; 25° C.; 8 w: 387000 U/mL
Bioassay (U/mL); 21F, 100 mg/mL; 25° C.; 13 w: 476000 U/mL
Bioassay (U/mL); 21F, 100 mg/mL; 25° C.; time 0: 456000 U/mL
Bioassay (U/mL); 21G, 100 mg/mL; 2-8° C.; 4 w: 543000 U/mL
Bioassay (U/mL); 21G, 100 mg/mL; 2-8° C.; 8 w: 401000 U/mL
Bioassay (U/mL); 21G, 100 mg/mL; 2-8° C.; 13 w: 445000 U/mL
Bioassay (U/mL); 21G, 100 mg/mL; 2-8° C.; time 0: 494000 U/mL
Bioassay (U/mL); 21G, 100 mg/mL; 25° C.; 4 w: 497000 U/mL
Bioassay (U/mL); 21G, 100 mg/mL; 25° C.; 8 w: 433000 U/mL
Bioassay (U/mL); 21G, 100 mg/mL; 25° C.; 13 w: 441000 U/mL
Bioassay (U/mL); 21G, 100 mg/mL; 25° C.; time 0: 494000 U/mL
Bioassay (U/mL); 21H, 100 mg/mL; 2-8° C.; 4 w: 446000 U/mL
Bioassay (U/mL); 21H, 100 mg/mL; 2-8° C.; 8 w: 388000 U/mL
Bioassay (U/mL); 21H, 100 mg/mL; 2-8° C.; 13 w: 445000 U/mL
Bioassay (U/mL); 21H, 100 mg/mL; 2-8° C.; time 0: 472000 U/mL
Bioassay (U/mL); 21H, 100 mg/mL; 25° C.; 4 w: 465000 U/mL
Bioassay (U/mL); 21H, 100 mg/mL; 25° C.; 8 w: 366000 U/mL
Bioassay (U/mL); 21H, 100 mg/mL; 25° C.; 13 w: 434000 U/mL
Bioassay (U/mL); 21H, 100 mg/mL; 25° C.; time 0: 472000 U/mL
Substance: TACI-Fc5 (Fc fusion)
